Data taken from paper PMC5681435 (2017).

Experiments:
[1] = target: GSTCDK6 (human, UniProt Q00534 1-326); assay: SPR
[2] = target: T1, GSTCDK4 (human, UniProt P11802 1-303); assay: SPR
T1 chain: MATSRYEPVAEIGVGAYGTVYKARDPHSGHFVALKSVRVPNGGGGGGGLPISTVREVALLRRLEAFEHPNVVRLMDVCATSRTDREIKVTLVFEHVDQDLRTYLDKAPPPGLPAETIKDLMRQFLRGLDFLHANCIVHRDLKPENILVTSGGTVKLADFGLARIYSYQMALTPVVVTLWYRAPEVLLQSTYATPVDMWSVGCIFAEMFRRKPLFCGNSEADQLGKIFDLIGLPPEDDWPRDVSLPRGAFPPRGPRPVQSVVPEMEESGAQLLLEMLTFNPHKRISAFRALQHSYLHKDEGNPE

Sequence of GSTCDK6 (Q00534 whole entry): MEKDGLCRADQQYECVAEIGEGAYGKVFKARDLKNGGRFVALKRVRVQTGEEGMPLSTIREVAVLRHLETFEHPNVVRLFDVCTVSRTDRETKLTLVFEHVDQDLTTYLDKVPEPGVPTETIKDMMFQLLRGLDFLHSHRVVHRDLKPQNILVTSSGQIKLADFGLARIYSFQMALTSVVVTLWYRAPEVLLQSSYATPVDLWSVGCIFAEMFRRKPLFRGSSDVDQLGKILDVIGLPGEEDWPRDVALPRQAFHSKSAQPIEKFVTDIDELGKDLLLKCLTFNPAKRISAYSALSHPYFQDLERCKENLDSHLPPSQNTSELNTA

B1: Cdc37 (analyte of the SPR titrations) (natural protein)
chain: MVDYSVWDHIEVSDDEDETHPNIDTASLFRWRHQARVERMEQFQKEKEELDRGCRECKRKVAECQRKLKELEVAEGGKAELERLQAEAQQLRKEERSWEQKLEEMRKKEKSMPWNVDTLSKDGFSKSMVNTKPEKTEEDSEEVREQKHKTFVEKYEKQIKHFGMLRRWDDSQKYLSDNVHLVCEETANYLVIWCIDLEVEEKCALMEQVAHQTIVMQFILELAKSLKVDPRACFRQFFTKIKTADRQYMEGFNDELEAFKERVRGRAKLRIEKAMKEYEEEERKKRLGPGGLDPVEVYESLPEELQKCFDVKDVQMLQDAISKMDPTDAKYHMQRCIDSGLWVPNSKASEAKEGEEAGPGDPLLEAVPKTGDEKDVSV
Q: For B1, which Kd [1] is on record?
A: 7 µM

Q: And the Kd [2]?
A: 0.347 µM
